Assay [1] deals with T1, carcinoembryonic antigen (human, UniProt P06731 35-685, limits assumed).
T1 construct: CEA sample fixed to a solid support, directly or through a capture antibody such as MN-15; also called CEA
T1 sequence (looked up): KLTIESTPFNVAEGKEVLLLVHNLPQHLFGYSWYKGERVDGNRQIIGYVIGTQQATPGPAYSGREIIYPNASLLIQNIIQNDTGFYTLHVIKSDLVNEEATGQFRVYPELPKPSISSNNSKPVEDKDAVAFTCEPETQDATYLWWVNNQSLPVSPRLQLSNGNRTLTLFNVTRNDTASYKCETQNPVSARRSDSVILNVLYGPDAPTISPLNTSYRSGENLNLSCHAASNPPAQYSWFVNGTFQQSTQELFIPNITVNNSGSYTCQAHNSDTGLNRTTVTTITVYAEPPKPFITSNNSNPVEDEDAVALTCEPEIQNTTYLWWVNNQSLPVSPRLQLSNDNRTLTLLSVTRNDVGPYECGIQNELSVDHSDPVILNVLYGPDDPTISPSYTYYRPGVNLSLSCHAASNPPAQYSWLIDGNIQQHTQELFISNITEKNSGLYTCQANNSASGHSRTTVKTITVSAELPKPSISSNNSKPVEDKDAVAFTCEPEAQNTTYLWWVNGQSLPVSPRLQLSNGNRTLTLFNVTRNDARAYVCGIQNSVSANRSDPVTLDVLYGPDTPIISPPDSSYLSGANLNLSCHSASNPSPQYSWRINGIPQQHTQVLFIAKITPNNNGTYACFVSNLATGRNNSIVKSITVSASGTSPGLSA
Description: MN-14 blocking assay on CEA, competitor HRP-labeled MN-14 (FIG. 9). The protocol:
(§1) The humanized KLHuVH varients, such as antibody KLHuVHAIGA/HuVK, were purified and tested in a blocking assay carried out as follows. Antibodies were added at the indicated concentrations together with HRP-labeled MN-14 to a final volume of 0.1 ml. Following 30 mins. of incubation at 37₁C, and washing to remove unbound antibodies, the relative affinities of the antibodies were determined from the remaining bound peroxidase activity. A shown by the assay data of FIG. 9, the activity of the “reshaped” (i.e., CDR-engrafted on FR) humanized antibody was similar to that of chimeric and murine positive controls.

In assay [2] the target is T1, carcinoembryonic antigen. Description: MN-14 blocking assay on CEA, unlabelled murine MN-14 against HRP-labeled MN-14 (FIG. 9). How it is done: as §1

B1: chimeric MN-14 antibody (MN-14 mouse VH and VK joined to human IgG1 and human kappa constant regions) (antibody, V domains shown)
VH: EVKLLESGGGLVQSGGSLKLSCAASGFDFTTYWMSWVRQAPGKGLEWIGEIHPDSSTINYAPSLKDKFIVSRDNAKNTLYLQMSKVRSEDTALYYCASLYFGFPWFAYWGQGTPVTVSA
VL: EIQLTQSHKMMSTSVGDRVSITCKASQDVGTSVAWYQQRPGQSPKLLIYWTSTRHTGVPDRFTGSVSGTDFTLTITNVQSEDLADYFCQQYSLYRSFGGGTKLEIK
notes: Human IgG1 constant region (Takahashi et al.) and human kappa constant region (Hieter et al.); The variable regions were re-amplified with primers VH1BACK/VH1FOR and VK8BACK/VK3FOR, so their terminal residues may be dictated by the primers; also called chimeric control; chimeric antibody
Regarding B1, in the assay with carcinoembryonic antigen [1], the binding result was “binds”.

B2: murine anti-CEA IgG1 monoclonal antibody MN-14 (antibody, V domains shown)
VH: B1 VH
VL: B1 VL
notes: Murine kappa IgG1; also called mMN-14; murine control
Regarding B2, the binding result in the assay with carcinoembryonic antigen [2] was “binds”.

The values are drawn from patent US20050089538A1 (IMMUNOMEDICS, published 2005).
